The record followed here is PMC4565553.

As usually defined, the Kd is a measure of binding affinity in units of concentration. Read a low Kd as a tighter complex.

Common to all, as to test: BLI; label-free in vitro kinetics assay; FLAG-tagged IPS1 CARD (2.5 μg/mL) immobilised on anti-FLAG probes; RLR CARDs at 0.001–100 μM in 1x Kinetics Buffer (ForteBio) with BSA, pH 7.0; 60 min association, 60 min dissociation; Kd = half-maximal steady-state binding, Km = half-maximal initial binding rate, one-site fit, 3 replicates; no ubiquitin
(BLI is a label-free optical method that tracks binding on a fibre tip over time.)

The target in experiment [1] is B. floridae IPS1 CARD (Branchiostoma floridae).
The target of experiment [2] is human IPS1 CARD (1–92), FLAG-tagged (human) (UniProt Q7Z434).
The target in experiment [3] is mutant human IPS1 CARD (Arg66,67—Glu), FLAG-tagged (human) (UniProt Q7Z434).

With “B. floridae RIG-I CARD1+2 (domain or fragment)”, in experiment [1], the fold lower Kd than the negative control (human CASP9 CARD) was 5.4 fold and the fold lower Km than the negative control (human CASP9 CARD) was found to be 6.1 fold.

B1: human MDA5 CARD1 (1–96) (domain or fragment)
chain: MSNGYSTDENFRYLISCFRARVKMYIQVEPVLDYLTFLPAEVKEQIQRTVATSGNMQAVELLLSTLEKGVWHLGWTREFVEALRRTGSPLAARYMN
Take B1: in experiment [2], the equilibrium dissociation constant (Kd) was 813 nM and the Km (half-maximal initial binding rate) worked out at 0.55 µM.

B2: human RIG-I CARD1 (1–87) (domain or fragment)
chain: MTTEQRRSLQAFQDYIRKTLDPTYILSYMAPWFREEEVQYIQAEKNNKGPMEAATLFLKFLLELQEEGWFRGFLDALDHAGYSGLYE
As for B2, in experiment [2], the Kd worked out at 33.1 nM, the Km (half-maximal initial binding rate) turned out to be 0.0389 µM and the fold stronger binding than human caspase9 CARD (negative control) stood at 70 fold. Besides, in experiment [3], the fold increase in Kd against wild-type IPS1 CARD amounted to 34.6 fold and the fold increase in Km against wild-type IPS1 CARD came out at 43.8 fold.

B3: mutant human RIG-I CARD1 (Glu66,67—Arg) (domain or fragment)
chain: MTTEQRRSLQAFQDYIRKTLDPTYILSYMAPWFREEEVQYIQAEKNNKGPMEAATLFLKFLLELQRRGWFRGFLDALDHAGYSGLYE
In experiment [2], B3 registered a fold increase in Kd against wild-type RIG-I CARD1 of 10 fold and a fold increase in Km against wild-type RIG-I CARD1 of 6.9 fold.
